From article PMC2677547 come the findings set out here.

The experiment deals with Coxsackievirus and adenovirus receptor (CAR), endogenous on rat spinal cord motor neurons (rat (endogenous in spinal cord motor neurons)) (UniProt Q9R066).
Chain of UniProt Q9R066 (Q9R066 20-365): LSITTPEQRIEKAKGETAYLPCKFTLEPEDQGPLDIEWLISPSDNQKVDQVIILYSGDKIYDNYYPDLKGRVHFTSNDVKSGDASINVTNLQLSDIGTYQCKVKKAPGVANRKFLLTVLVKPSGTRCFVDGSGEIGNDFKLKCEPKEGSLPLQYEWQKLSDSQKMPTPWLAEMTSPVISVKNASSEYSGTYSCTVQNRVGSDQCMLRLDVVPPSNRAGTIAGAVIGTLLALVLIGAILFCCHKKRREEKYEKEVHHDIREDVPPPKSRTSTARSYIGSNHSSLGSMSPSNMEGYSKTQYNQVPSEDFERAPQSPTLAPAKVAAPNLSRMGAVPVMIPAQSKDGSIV

In the case of “CAV-2 fibre knob, unlabelled recombinant (FK) (domain or fragment)”, the CAV-2 virion uptake in MNs after pre-incubation with saturating concentrations of recombinant FK (blocks CAV-2 virion with CAR) amounted to 76%.
